B1: CPEB3 Ribozyme (parent)
chain: UAACAGGGGGCCACAGCAGAAGCGUUCACGUCGCAGCCCCUGUCAGAUUCUGGUGAAUCUGCGAAUUCUGCUGUAUAUCUC

Variants of: B1
Assay: self-cleavage, relative activity (ratio to wild type); higher = more cleavage; in vitro, sequencing
Procedure, shortened: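 After error-prone PCR and barcoding, CPEB3 ribozyme mutant libraries were transcribed with T7 RNA polymerase at 37°C for 5 hours, then given 15 min with DNase I before an EDTA stop, and they cleaved during both steps. Reverse transcription with template switching preceded Illumina sequencing. Relative activity divides a variant's cleaved/total read fraction by the unmutated ribozyme's. At least 5 reads were required per variant, and three batches were averaged.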

| Variant | self-cleavage |
| --- | --- |
| UAACAGGGGGCCACAGCAGAAGCGUGCACGUCGCAGCCCCUGUCAGAUUCUGGUGAAUCUGCGAAUUCUGCUGUAUAUCAC [U26G U80A] | 0.35 |
| UAACAGGGGGCCACAGCAGAAGCGUGCACGUCGCAGCCCCUGUCAGAUUCUGGUGAAUCUGCGAAUUCUGCUGUAUAUCCC [U26G U80C] | 0.51 |
| UAACAGGGGGCCACAGCAGAAGCGUUAACGUCGCAGCCCCUGUCAGAUUCUGGUGAAUCUGCGAAUUCUGCUGUAUAUCUC [C27A] | 0.3 |
| UAACAGGGGGCCACAGCAGAAGCGUUAGCGUCGCAGCCCCUGUCAGAUUCUGGUGAAUCUGCGAAUUCUGCUGUAUAUCUC [C27A A28G] | 0.27 |
| UAACAGGGGGCCACAGCAGAAGCGUUAACGUCGCGGCCCCUGUCAGAUUCUGGUGAAUCUGCGAAUUCUGCUGUAUAUCUC [C27A A35G] | 0.52 |
| UAACAGGGGGCCACAGCAGAAGCGUUAACGUCGCAGCCCCUGUCGGAUUCUGGUGAAUCUGCGAAUUCUGCUGUAUAUCUC [C27A A45G] | 0.22 |
| UAACAGGGGGCCACAGCAGAAGCGUUAACGUCGCAGCCCCUGUCAGAUUCUGGUGUAUCUGCGAAUUCUGCUGUAUAUCUC [C27A A56U] | 0.09 |
| UAACAGGGGGCCACAGCAGAAGCGUUAACGUCGCAGCCCCUGUCAGAUUCUGGUGAGUCUGCGAAUUCUGCUGUAUAUCUC [C27A A57G] | 0.08 |
| UAACAGGGGGCCACAGCAGAAGCGUUAACGUCGCAGCCCCUGUCAGAUUCUGGUGAAUCUGCGGAUUCUGCUGUAUAUCUC [C27A A64G] | 0.33 |
| UAACAGGGGGCCACAGCAGAAGCGUUAACGUCGCAGCCCCUGUCAGAUUCUGGUGAAUCUGCGUAUUCUGCUGUAUAUCUC [C27A A64U] | 0.2 |
| UAACAGGGGGCCACAGCAGAAGCGUUAACGUCGCAGCCCCUGUCAGAUUCUGGUGAAUCUGCGAGUUCUGCUGUAUAUCUC [C27A A65G] | 0.25 |
| UAACAGGGGGCCACAGCAGAAGCGUUAACGUCGCAGCCCCUGUCAGAUUCUGGUGAAUCUGCGAAUUCUGCUGUAUUUCUC [C27A A77U] | 0.14 |
| UAACAGGGGGCCACAGCAGAAGCGUUAACGUUGCAGCCCCUGUCAGAUUCUGGUGAAUCUGCGAAUUCUGCUGUAUAUCUC [C27A C32U] | 0.3 |
| UAACAGGGGGCCACAGCAGAAGCGUUAACGUCGCAGUCCCUGUCAGAUUCUGGUGAAUCUGCGAAUUCUGCUGUAUAUCUC [C27A C37U] | 0.21 |
| UAACAGGGGGCCACAGCAGAAGCGUUAACGUCGCAGCCACUGUCAGAUUCUGGUGAAUCUGCGAAUUCUGCUGUAUAUCUC [C27A C39A] | 0.2 |
| UAACAGGGGGCCACAGCAGAAGCGUUAACGUCGCAGCCCCUGUGAGAUUCUGGUGAAUCUGCGAAUUCUGCUGUAUAUCUC [C27A C44G] | 0.07 |
| UAACAGGGGGCCACAGCAGAAGCGUUAACGUCGCAGCCCCUGUCAGAUUUUGGUGAAUCUGCGAAUUCUGCUGUAUAUCUC [C27A C50U] | 0.17 |
| UAACAGGGGGCCACAGCAGAAGCGUUAACGUCGCAGCCCCUGUCAGAUUCUGGUGAAUAUGCGAAUUCUGCUGUAUAUCUC [C27A C59A] | 0.11 |
| UAACAGGGGGCCACAGCAGAAGCGUUAACGUCGCAGCCCCUGUCAGAUUCUGGUGAAUCUGCGAAUUCUGCUGUAUAUCUU [C27A C81U] | 0.11 |
| UAACAGGGGGCCACAGCAGAAGCGUUAACGUCGCAGCCCCUGUCAUAUUCUGGUGAAUCUGCGAAUUCUGCUGUAUAUCUC [C27A G46U] | 0.18 |
| UAACAGGGGGCCACAGCAGAAGCGUUAACGUCGCAGCCCCAGUCAGAUUCUGGUGAAUCUGCGAAUUCUGCUGUAUAUCUC [C27A U41A] | 0.07 |
| UAACAGGGGGCCACAGCAGAAGCGUUAACGUCGCAGCCCCCGUCAGAUUCUGGUGAAUCUGCGAAUUCUGCUGUAUAUCUC [C27A U41C] | 0.24 |
| UAACAGGGGGCCACAGCAGAAGCGUUAACGUCGCAGCCCCUGACAGAUUCUGGUGAAUCUGCGAAUUCUGCUGUAUAUCUC [C27A U43A] | 0.39 |

| Variant | self-cleavage |
| --- | --- |
| UAACAGGGGGCCACAGCAGAAGCGUUAACGUCGCAGCCCCUGCCAGAUUCUGGUGAAUCUGCGAAUUCUGCUGUAUAUCUC [C27A U43C] | 0.18 |
| UAACAGGGGGCCACAGCAGAAGCGUUAACGUCGCAGCCCCUGUCAGACUCUGGUGAAUCUGCGAAUUCUGCUGUAUAUCUC [C27A U48C] | 0.11 |
| UAACAGGGGGCCACAGCAGAAGCGUUAACGUCGCAGCCCCUGUCAGAUUCAGGUGAAUCUGCGAAUUCUGCUGUAUAUCUC [C27A U51A] | 0.38 |
| UAACAGGGGGCCACAGCAGAAGCGUUAACGUCGCAGCCCCUGUCAGAUUCCGGUGAAUCUGCGAAUUCUGCUGUAUAUCUC [C27A U51C] | 0.21 |
| UAACAGGGGGCCACAGCAGAAGCGUUAACGUCGCAGCCCCUGUCAGAUUCUGGCGAAUCUGCGAAUUCUGCUGUAUAUCUC [C27A U54C] | 0.56 |
| UAACAGGGGGCCACAGCAGAAGCGUUAACGUCGCAGCCCCUGUCAGAUUCUGGUGAAGCUGCGAAUUCUGCUGUAUAUCUC [C27A U58G] | 0.25 |
| UAACAGGGGGCCACAGCAGAAGCGUUAACGUCGCAGCCCCUGUCAGAUUCUGGUGAAUCCGCGAAUUCUGCUGUAUAUCUC [C27A U60C] | 0.18 |
| UAACAGGGGGCCACAGCAGAAGCGUUAACGUCGCAGCCCCUGUCAGAUUCUGGUGAAUCUGCGAAUACUGCUGUAUAUCUC [C27A U67A] | 0.18 |
| UAACAGGGGGCCACAGCAGAAGCGUUAACGUCGCAGCCCCUGUCAGAUUCUGGUGAAUCUGCGAAUCCUGCUGUAUAUCUC [C27A U67C] | 0.14 |
| UAACAGGGGGCCACAGCAGAAGCGUUAACGUCGCAGCCCCUGUCAGAUUCUGGUGAAUCUGCGAAUUCAGCUGUAUAUCUC [C27A U69A] | 0.08 |
| UAACAGGGGGCCACAGCAGAAGCGUUAACGUCGCAGCCCCUGUCAGAUUCUGGUGAAUCUGCGAAUUCUGCCGUAUAUCUC [C27A U72C] | 0.19 |
| UAACAGGGGGCCACAGCAGAAGCGUUAACGUCGCAGCCCCUGUCAGAUUCUGGUGAAUCUGCGAAUUCUGCUGCAUAUCUC [C27A U74C] | 0.19 |
| UAACAGGGGGCCACAGCAGAAGCGUUAACGUCGCAGCCCCUGUCAGAUUCUGGUGAAUCUGCGAAUUCUGCUGUAAAUCUC [C27A U76A] | 0.55 |
| UAACAGGGGGCCACAGCAGAAGCGUUAACGUCGCAGCCCCUGUCAGAUUCUGGUGAAUCUGCGAAUUCUGCUGUACAUCUC [C27A U76C] | 0.21 |
| UAACAGGGGGCCACAGCAGAAGCGUUAACGUCGCAGCCCCUGUCAGAUUCUGGUGAAUCUGCGAAUUCUGCUGUAUACCUC [C27A U78C] | 0.19 |
| UAACAGGGGGCCACAGCAGAAGCGUUAACGUCGCAGCCCCUGUCAGAUUCUGGUGAAUCUGCGAAUUCUGCUGUAUAUCAC [C27A U80A] | 0.17 |
| UAACAGGGGGCCACAGCAGAAGCGUUAACGUCGCAGCCCCUGUCAGAUUCUGGUGAAUCUGCGAAUUCUGCUGUAUAUCCC [C27A U80C] | 0.66 |
| UAACAGGGGGCCACAGCAGAAGCGUUGACGUCGCAGCCCCUGUCAGAUUCUGGUGAAUCUGCGAAUUCUGCUGUAUAUCUC [C27G] | 0.28 |
| UAACAGGGGGCCACAGCAGAAGCGUUGACGUCGCUGCCCCUGUCAGAUUCUGGUGAAUCUGCGAAUUCUGCUGUAUAUCUC [C27G A35U] | 0.16 |
| UAACAGGGGGCCACAGCAGAAGCGUUGACGUCGCAGCCCCUGUCAGUUUCUGGUGAAUCUGCGAAUUCUGCUGUAUAUCUC [C27G A47U] | 0.05 |
| UAACAGGGGGCCACAGCAGAAGCGUUGACGUCGCAGCCCCUGUCAGAUUCUGGUGGAUCUGCGAAUUCUGCUGUAUAUCUC [C27G A56G] | 0.14 |
| UAACAGGGGGCCACAGCAGAAGCGUUGACGUCGCAGCCCCUGUCAGAUUCUGGUGAAUCUGCGGAUUCUGCUGUAUAUCUC [C27G A64G] | 0.23 |
| UAACAGGGGGCCACAGCAGAAGCGUUGACGUCGCAGCCCCUGUCAGAUUCUGGUGAAUCUGCGAAUUCUGCUGUGUAUCUC [C27G A75G] | 0.3 |

| Variant | self-cleavage |
| --- | --- |
| UAACAGGGGGCCACAGCAGAAGCGUUGAUGUCGCAGCCCCUGUCAGAUUCUGGUGAAUCUGCGAAUUCUGCUGUAUAUCUC [C27G C29U] | 0.29 |
| UAACAGGGGGCCACAGCAGAAGCGUUGACGUUGCAGCCCCUGUCAGAUUCUGGUGAAUCUGCGAAUUCUGCUGUAUAUCUC [C27G C32U] | 0.17 |
| UAACAGGGGGCCACAGCAGAAGCGUUGACGUCGCAGCCCCUGUCAGAUUUUGGUGAAUCUGCGAAUUCUGCUGUAUAUCUC [C27G C50U] | 0.23 |
| UAACAGGGGGCCACAGCAGAAGCGUUGACGUCGCAGCCCCCGUCAGAUUCUGGUGAAUCUGCGAAUUCUGCUGUAUAUCUC [C27G U41C] | 0.18 |
| UAACAGGGGGCCACAGCAGAAGCGUUGACGUCGCAGCCCCUGUCAGAUACUGGUGAAUCUGCGAAUUCUGCUGUAUAUCUC [C27G U49A] | 0.28 |
| UAACAGGGGGCCACAGCAGAAGCGUUGACGUCGCAGCCCCUGUCAGAUUCUGGCGAAUCUGCGAAUUCUGCUGUAUAUCUC [C27G U54C] | 0.3 |
| UAACAGGGGGCCACAGCAGAAGCGUUGACGUCGCAGCCCCUGUCAGAUUCUGGUGAAUCUGCGAAUUCCGCUGUAUAUCUC [C27G U69C] | 0.24 |
| UAACAGGGGGCCACAGCAGAAGCGUUGACGUCGCAGCCCCUGUCAGAUUCUGGUGAAUCUGCGAAUUCGGCUGUAUAUCUC [C27G U69G] | 0.14 |
| UAACAGGGGGCCACAGCAGAAGCGUUGACGUCGCAGCCCCUGUCAGAUUCUGGUGAAUCUGCGAAUUCUGCCGUAUAUCUC [C27G U72C] | 0.11 |
| UAACAGGGGGCCACAGCAGAAGCGUUGACGUCGCAGCCCCUGUCAGAUUCUGGUGAAUCUGCGAAUUCUGCUGCAUAUCUC [C27G U74C] | 0.41 |
| UAACAGGGGGCCACAGCAGAAGCGUUGACGUCGCAGCCCCUGUCAGAUUCUGGUGAAUCUGCGAAUUCUGCUGUACAUCUC [C27G U76C] | 0.22 |
| UAACAGGGGGCCACAGCAGAAGCGUUGACGUCGCAGCCCCUGUCAGAUUCUGGUGAAUCUGCGAAUUCUGCUGUAUAUCAC [C27G U80A] | 0.22 |
| UAACAGGGGGCCACAGCAGAAGCGUUUACGUCGCAGCCCCUGUCAGAUUCUGGUGAAUCUGCGAAUUCUGCUGUAUAUCUC [C27U] | 0.29 |
| UAACAGGGGGCCACAGCAGAAGCGUUUGCGUCGCAGCCCCUGUCAGAUUCUGGUGAAUCUGCGAAUUCUGCUGUAUAUCUC [C27U A28G] | 0.37 |
| UAACAGGGGGCCACAGCAGAAGCGUUUACGUCGCGGCCCCUGUCAGAUUCUGGUGAAUCUGCGAAUUCUGCUGUAUAUCUC [C27U A35G] | 0.41 |
| UAACAGGGGGCCACAGCAGAAGCGUUUACGUCGCUGCCCCUGUCAGAUUCUGGUGAAUCUGCGAAUUCUGCUGUAUAUCUC [C27U A35U] | 0.32 |
| UAACAGGGGGCCACAGCAGAAGCGUUUACGUCGCAGCCCCUGUCCGAUUCUGGUGAAUCUGCGAAUUCUGCUGUAUAUCUC [C27U A45C] | 0.19 |
| UAACAGGGGGCCACAGCAGAAGCGUUUACGUCGCAGCCCCUGUCGGAUUCUGGUGAAUCUGCGAAUUCUGCUGUAUAUCUC [C27U A45G] | 0.17 |
| UAACAGGGGGCCACAGCAGAAGCGUUUACGUCGCAGCCCCUGUCAGGUUCUGGUGAAUCUGCGAAUUCUGCUGUAUAUCUC [C27U A47G] | 0.28 |
| UAACAGGGGGCCACAGCAGAAGCGUUUACGUCGCAGCCCCUGUCAGUUUCUGGUGAAUCUGCGAAUUCUGCUGUAUAUCUC [C27U A47U] | 0.44 |
| UAACAGGGGGCCACAGCAGAAGCGUUUACGUCGCAGCCCCUGUCAGAUUCUGGUGGAUCUGCGAAUUCUGCUGUAUAUCUC [C27U A56G] | 0.52 |
| UAACAGGGGGCCACAGCAGAAGCGUUUACGUCGCAGCCCCUGUCAGAUUCUGGUGUAUCUGCGAAUUCUGCUGUAUAUCUC [C27U A56U] | 0.21 |
